Residue numbers refer to the chain shown, from its start. Numbers in names are those of the source.
T1: human IL-22 (human, UniProt Q9GZX6 34-179)
T1 construct: also called hIL-22; hIL22
T1 sequence (looked up): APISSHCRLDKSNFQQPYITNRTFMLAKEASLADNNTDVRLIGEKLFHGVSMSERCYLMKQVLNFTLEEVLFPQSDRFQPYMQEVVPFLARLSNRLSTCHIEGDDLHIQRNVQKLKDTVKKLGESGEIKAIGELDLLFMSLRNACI

T2: mouse IL-22 (mouse, UniProt Q9JJY9 34-179)
T2 construct: also called mIL-22; mIL22
T2 sequence (looked up): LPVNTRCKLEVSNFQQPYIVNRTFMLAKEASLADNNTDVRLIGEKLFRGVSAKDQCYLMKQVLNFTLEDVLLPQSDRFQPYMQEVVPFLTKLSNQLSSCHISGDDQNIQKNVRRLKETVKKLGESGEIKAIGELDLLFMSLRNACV

T3: human IL19 (human, UniProt Q9UHD0 25-177)
T3 sequence (looked up): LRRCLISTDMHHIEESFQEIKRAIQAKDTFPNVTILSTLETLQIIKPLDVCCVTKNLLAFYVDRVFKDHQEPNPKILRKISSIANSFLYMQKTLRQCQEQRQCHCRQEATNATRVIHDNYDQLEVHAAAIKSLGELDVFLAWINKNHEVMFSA

T4: INF-γ (Homo sapiens (Human), UniProt P01579 24-161)
T4 sequence: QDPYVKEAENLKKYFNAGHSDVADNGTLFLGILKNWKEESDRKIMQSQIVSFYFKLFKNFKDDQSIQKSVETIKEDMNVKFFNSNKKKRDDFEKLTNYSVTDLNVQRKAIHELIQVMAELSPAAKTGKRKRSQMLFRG

T5: human IL20 (human, UniProt Q9NYY1 25-176)
T5 sequence (looked up): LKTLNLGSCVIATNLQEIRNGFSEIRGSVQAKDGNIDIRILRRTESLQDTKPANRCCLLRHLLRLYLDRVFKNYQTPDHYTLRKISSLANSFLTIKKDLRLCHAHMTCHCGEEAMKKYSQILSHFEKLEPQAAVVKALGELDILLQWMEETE

T6: human IL26 (human, UniProt Q9NPH9 22-171, limits assumed)
T6 sequence (looked up): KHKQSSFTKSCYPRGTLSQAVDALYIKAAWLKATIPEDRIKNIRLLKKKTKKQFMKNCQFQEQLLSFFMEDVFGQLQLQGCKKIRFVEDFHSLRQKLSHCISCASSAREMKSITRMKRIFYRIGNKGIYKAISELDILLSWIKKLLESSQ

T7: human IL24 (human, UniProt Q13007 52-206, limits assumed)
T7 sequence (looked up): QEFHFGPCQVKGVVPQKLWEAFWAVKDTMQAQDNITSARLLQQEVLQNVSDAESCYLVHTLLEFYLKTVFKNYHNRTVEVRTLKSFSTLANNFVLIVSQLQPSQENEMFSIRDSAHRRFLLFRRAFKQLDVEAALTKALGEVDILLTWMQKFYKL

B1: CPS-02 (antibody, V domains shown)
VH: QVQLVQSGAEVKKPGASVKVSCKASGYIFRSYWIHWIRQPPGKGLEWIGRIYPGTGRTYYNEKFKGRVTISADKSISTAYLQWSSLKASDTAMYYCARSYDSSVAYWGQGTLVTVSS
VL: AIQLTQSPSSLSASVGDRVTITCSASSSVSYMHWYLQKPGQSPQLLIYKTRKLASGVPSRFSGSGSGTDFTFTISSLEAEDAATYYCQQWSSNPYITFGQGTKVEIKR
notes: Mutant of humanized hum10, whole antibody expressed in CHO cells; also called CPS-hit-02; CSP02
B2: CPS-09 (antibody, V domains shown)
VH: B1 VH with S102Y
VL: B1 VL with K49E
notes: Mutant of humanized hum10, whole antibody expressed in CHO cells; also called CPS-hit-09; CSP09
B3: CPE-LC-E049K (antibody, V domains shown)
VH: B1 VH with R30T, R57N, V104C
VL: B1 VL with R51S
notes: One of the mutant antibodies of the CPE library made from hum10 (CDR positions substituted); built here as hum10 with E49K in the light chain, read from its name
B4: CPS-14 (antibody, V domains shown)
VH: B1 VH with R30T, E62R, S102Y
VL: B1 VL with K49E
notes: Mutant of humanized hum10, whole antibody expressed in CHO cells; also called LC-04 / HC-31
B5: CPS-17 (antibody, V domains shown)
VH: B1 VH with R57N, E62R, D101M, S102Y
VL: B1 VL with K49E
notes: Mutant of humanized hum10, whole antibody expressed in CHO cells; also called LC-04 / HC-49
B6: CPS-04 (antibody, V domains shown)
VH: B1 VH with R57N, E62R
VL: B1 VL with R51S, A54L
notes: Mutant of humanized hum10, whole antibody expressed in CHO cells; also called LC-07 / HC-09
B7: CPS-11 (antibody, V domains shown)
VH: B1 VH with S102Y
VL: B1 VL
notes: Mutant of humanized hum10, whole antibody expressed in CHO cells; also called LC-06 / HC-25
B8: CPS-16 (antibody, V domains shown)
VH: B1 VH with R57N, E62R, D101M, S102Y
VL: B1 VL with R51S
notes: Mutant of humanized hum10, whole antibody expressed in CHO cells; also called LC-03 / HC-49
B9: CPS-01 (antibody, V domains shown)
VH: B1 VH
VL: B1 VL with R51S
notes: Mutant of humanized hum10, whole antibody expressed in CHO cells; also called LC-03 / HC-08
B10: CPS-20 (antibody, V domains shown)
VH: B1 VH with R57N, E62R, D101M, A105G
VL: B1 VL with Y31K, K49E
notes: Mutant of humanized hum10, whole antibody expressed in CHO cells; also called LC-11 / HC-50
B11: CPS-10 (antibody, V domains shown)
VH: B1 VH with S102Y
VL: B1 VL with K49E, R51S, A54L
notes: Mutant of humanized hum10, whole antibody expressed in CHO cells; also called LC-05 / HC-25

Target: T1, human IL-22
Test: affinity ELISA on hIL22, mAb concentration at 50% max signal

Binder | EC50
B1 | 0.027 nM
B2 | 0.081 nM

Target: T2, mouse IL-22
Test: affinity ELISA on mIL22, mAb concentration at 50% max signal

Binder | EC50
B1 | 0.042 nM
B2 | 0.141 nM

Target: T1, human IL-22
Test: cell-based or functional assay

Binder | STAT3 Phosphorylation; hIL22 % inhibition mAb [0.73 nM]
B1 | 33.8%
B2 | 12.1%

Target: T2, mouse IL-22
Test: cell-based or functional assay

Binder | Acute Phase response 5 µg mIL22 and 5 µg mAb (% signal reduction), molar ratio mIL22: mAb = 4.5:1 (serum amyloid in mice) | Acute Phase response 5 µg mIL22 and 50 µg mAb (% signal reduction), molar ratio of mIL22:mAb = 1:2.2 (serum amyloid in mice)
B1 | 81% | 
B2 | 73% | 42%

Target: IL-22 (CXCL1 assay in HT29 cells)
Test: cell-based or functional assay

Binder | CXCL-1 Assay (IC50 [pM]) double data points 02122015 | CXCL-1 Assay (IC50 [pM]) single data points 02052015
B1 | 131 pM | 197 pM
B2 | 204 pM | 411 pM

Target: IL-22 (CXCL1 assay in HT29 cells)
Test: cell-based or functional assay
Remark: another data set of the same source

Binder | IC50 (parameter C of the log-logit fit y=(A-D)/(1+(x/C)^B)+D) of inhibition of IL-22-induced CXCL1 production in HT29 cells
B3 | 124 ng/ml
B4 | 44.2 ng/ml
B5 | 155 ng/ml
B1 | 29.5 ng/ml
B6 | 51 ng/ml
B2 | 61.6 ng/ml

Target: T1, human IL-22
Test: affinity ELISA on hIL22, mAb concentration at 50% max signal (second row of the same name)

Binder | EC50
B1 | 0.054 nM
B2 | 0.074 nM

Target: T2, mouse IL-22
Test: affinity ELISA on mIL22, mAb concentration at 50% max signal (second row of the same name)

Binder | EC50
B1 | 0.019 nM
B2 | 0.034 nM

Target: T1, human IL-22
Test: affinity ELISA and titration ELISA, CPE library screen
Text: (§1) Specifically, the CPE™ variants were screened by affinity ELISA for mouse IL-22 (mIL-22) binding affinity. […] The primary CPE™ hits were re-arrayed, re-transfected, and screened again by affinity ELISA and also by titration ELISA using both mIL-22 and human IL-22 (hIL-22) for antibodies that bind to both mIL-22 and hIL-22.

Binder | binding result
B7 | binds
B8 | binds
B9 | binds
B10 | binds
B11 | binds

Target: T2, mouse IL-22
Test: as above
Text: as §1

Binder | binding result
B7 | binds
B8 | binds
B9 | binds
B10 | binds
B11 | binds

Target: T1, human IL-22
Test: SPR (SierraSensors SPR-2), hIL-22 immobilized on chip, antibody injected, Langmuir 1:1 model
Experimental: (§2) The affinity of the 10 antibodies of Table 1 was measured by Surface Plasma Resonance (SPR) using a capture assay on a SPR-2 instrument (SierraSensiors, Hamburg, Germany). The antigens hIL-22 and mIL-22 were immobilized on chips. The running buffer for the assay contained 10 mM HEPES with a pH of 7.4, 500 mM NaCl, and 0.05% TWEEN® 20. […] The off-rate was measured for 6 minutes. Binding constants were calculated using the curve fitting software Analyzer2 (Sierra Sensors). Sensorgrams were analyzed with the instrument specific software and with BIAevaluation 4.1 software. The binding data were analyzed using the Langmuir 1:1 model (human IL-22) or a model for a heterogeneous ligand (mouse IL-220).

Binder | Kd | koff
B3 | 0.156 nM | 5.93e-05 s⁻¹
B4 | 0.0314 nM | 3.55e-05 s⁻¹
B5 | 0.0522 nM | 6.94e-05 s⁻¹
B1 | 0.025 nM | 4.67e-05 s⁻¹
B6 | 0.0292 nM | 3.74e-05 s⁻¹
B2 | 0.0253 nM | 2.18e-05 s⁻¹

Target: T2, mouse IL-22
Test: SPR (SierraSensors SPR-2), mIL-22 immobilized on chip, antibody injected, heterogeneous ligand model
Experimental: as §2

Binder | Kd | koff
B3 | 40.2 nM | 0.00137 s⁻¹
B4 | 4.8 nM | 0.00123 s⁻¹
B5 | 6.27 nM | 0.00158 s⁻¹
B1 | 3.28 nM | 0.000545 s⁻¹
B6 | 4.23 nM | 0.00118 s⁻¹
B2 | 3.96 nM | 0.000768 s⁻¹

Target: INF-λ1 (Homo sapiens (Human), UniProt Q8IU54 20-200)
Test: ELISA on coated antigen (1 ug/ml), anti-hIgG-HRP, OD450;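 further: specificity check of antibodies applied at 100 ng/ml to wells bearing human or mouse IL-22, related cytokines or an unrelated control antigen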
Experimental: (§3) Plates were coated with 100 μl antigens at a concentration of 1 μg/ml. The plates were exposed to the antibodies at a concentration of 100 ng/ml. The bound antibodies were detected with anti-hIgG-HRP by the ELISA assay.

Sequence of INF-λ1 (Q8IU54 20-200 limits assumed): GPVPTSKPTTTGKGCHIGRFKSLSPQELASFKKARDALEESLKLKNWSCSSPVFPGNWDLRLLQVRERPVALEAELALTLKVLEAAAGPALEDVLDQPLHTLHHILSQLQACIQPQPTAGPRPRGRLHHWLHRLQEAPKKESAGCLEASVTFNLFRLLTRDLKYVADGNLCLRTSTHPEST

Binder | binding result
B3 | no binding (tested: 100 ng/ml)
B4 | no binding (tested: 100 ng/ml)
B5 | no binding (tested: 100 ng/ml)
B1 | no binding (tested: 100 ng/ml)
B6 | no binding (tested: 100 ng/ml)

Target: T3, human IL19
Test: as above
Experimental: as §3

Binder | binding result
B3 | no binding (tested: 100 ng/ml)
B4 | no binding (tested: 100 ng/ml)
B5 | no binding (tested: 100 ng/ml)
B1 | no binding (tested: 100 ng/ml)
B6 | no binding (tested: 100 ng/ml)

Target: T4, INF-γ
Test: as above
Experimental: as §3

Binder | binding result
B3 | no binding (tested: 100 ng/ml)
B4 | no binding (tested: 100 ng/ml)
B5 | no binding (tested: 100 ng/ml)
B1 | no binding (tested: 100 ng/ml)
B6 | no binding (tested: 100 ng/ml)

Target: T5, human IL20
Test: as above
Experimental: as §3

Binder | binding result
B3 | no binding (tested: 100 ng/ml)
B4 | no binding (tested: 100 ng/ml)
B5 | no binding (tested: 100 ng/ml)
B1 | no binding (tested: 100 ng/ml)
B6 | no binding (tested: 100 ng/ml)

Target: T6, human IL26
Test: as above
Experimental: as §3

Binder | binding result
B3 | no binding (tested: 100 ng/ml)
B4 | no binding (tested: 100 ng/ml)
B5 | no binding (tested: 100 ng/ml)
B1 | no binding (tested: 100 ng/ml)
B6 | no binding (tested: 100 ng/ml)

Target: T7, human IL24
Test: as above
Experimental: as §3

Binder | binding result
B3 | no binding (tested: 100 ng/ml)
B4 | no binding (tested: 100 ng/ml)
B5 | no binding (tested: 100 ng/ml)
B1 | no binding (tested: 100 ng/ml)
B6 | no binding (tested: 100 ng/ml)

Reference: patent US20210230263A1 (BIOATLA, published 2021)
